Measured values from publication PMC8816947.

Tests used:
[1] = biological target: BG505.MD39 native-like trimer (stabilized HIV Env gp140 ectodomain), sequence optimized, recombinant (HIV-1 (isolate BG505)); test: SEC-MALS
[2] = biological target: BG505.MD39 native-like trimer (stabilized HIV Env gp140 ectodomain), sequence optimized, recombinant (HIV-1 (isolate BG505)); test: SEC
[3] = biological target: BG505.MD39 native-like trimer (stabilized HIV Env gp140 ectodomain), sequence optimized, recombinant (HIV-1 (isolate BG505)); test: negative-stain EM
[4] = biological target: BG505.MD39 native-like trimer (stabilized HIV Env gp140 ectodomain), sequence optimized, recombinant (HIV-1 (isolate BG505)); test: native gel or EMSA
[5] = biological target: in vivo produced BG505.MD39 (DNA-encoded, pMD39_opt, in mouse muscle) (HIV-1 (isolate BG505)); test: native gel or EMSA

Substance	stoichiometry N [1]	stoichiometry N [2]	stoichiometry N [3]	stoichiometry N [4]	stoichiometry N [5]
BG505.MD39 native-like trimer (stabilized HIV Env gp140 ectodomain), sequence optimized, recombinant (complex)	3	3	3	3	
in vivo produced BG505.MD39 (DNA-encoded, pMD39_opt, in mouse muscle) (complex)					3
